From PMC7589674 come the findings set out here.

The experiment addresses The-05 (variant of the HFt-MP-PASE construct bearing the Lys53Glu, Lys71Glu, Thr135Glu and Lys143Glu mutations) (human). Put plainly: SEC + other: dynamic light scattering + other: negative-stain TEM; empty The-05; Superose 6 in PBS pH 7.4; DLS at 25 °C, 1 mg/mL in diluted PBS (1:2); TEM 0.1 mg/mL, 2% uranyl acetate; assembly of the subunits into the cage.

Broadly, the stoichiometry N is a count of units in the complex or per binding partner. For “The-05 (variant of the HFt-MP-PASE construct bearing the Lys53Glu, Lys71Glu, Thr135Glu and Lys143Glu mutations) (designed binder)”, the stoichiometry N came to 24.
